“And” between values parts separate entries of the source, which are not always exact repeats. Identical values can stand only once.
Columns and labels:
[1] = system: (d)2,3-dihydroxypropionylSSSChgQ-SL-DOX (3′)
[2] = system: 2,3-dihydroxypropionyl-HomoSSSChgQ-SL-DOX (3′)
[3] = system: PEG(4)-β-PAL-SSChgQ-SL-acid
[4] = system: PEG(2)-SHomoRChgQ-SL-DOX (3′)
[5] = system: 2-hydroxyacetyl-hRSSYQ-SNle-acid
[6] = system: (l)2,3-dihydroxypropionyl-SSChgQ-SL-acid
[7] = system: PEG(2)-SHomoRYQ-SL-DOX (3′)
[8] = system: PEG(6)-ASChgQ-SL-DOX (3′)
[9] = system: (l)2,3-dihydroxypropionyl-HomoRSSChgQ-SL-DOX (3′)
[10] = system: PEG(16)-SHomoRYQ-SL-DOX (3′)
[11] = system: 2-hydroxyacetyl-HomoRSSYQ-SNle-DOX (3′)
[12] = system: (l)2,3-dihydroxypropionyl-SHomoRChgQ-SL-DOX (3′)
[13] = system: (d)2,3-dihydroxypropionyl-3PALSSChgQ-SL-DOX (3′).AcOH
[14] = system: (l)2,3-dihydroxypropionylSSSChgQ-SL-DOX (3′)
[15] = system: (l)2,3-dihydroxypropionyl-3PAL-SSChgQ-SL-acid
[16] = system: 2,3-dihydroxypropionyl-SSSChgQ-SL-acid
[17] = system: (2R,3S) 2,3,4-trihydroxybutanoyl-SHomoRChgQ-SL-DOX (3′)
[18] = system: 2,3-dihydroxypropionyl-ShRChgQ-SL-acid
[19] = system: 2-hydroxyacetyl-hRSSYQ-SL-acid
[20] = system: PEG(2)-HomoRSSChgQ-SL-DOX (3′)
[21] = system: (l)2,3-dihydroxypropionyl-SSSChgQ-SL-acid
[22] = system: (d)2,3-dihydroxypropionylSSChgQ-SL-DOX (3′)
[23] = system: 2-hydroxyacetylhRYQ-SL-acid
[24] = system: 2-hydroxyacetyl-hRASChgQ-SL-acid
[25] = system: (d)2,3-dihydroxypropionyl-SHomoRChgQ-SL-DOX (3′)
[26] = system: 2(S)-2,3-dihydroxy-propionyl ShRChgQSL-acid
[27] = system: 2-hydroxyacetyl-SHomoRChgQ-SL-DOX (3′)
[28] = system: (l)2,3-dihydroxypropionyl-SSChgQ-SL-DOX (3′)
[29] = system: 2(S)2,3-dihydroxypropionyl-hRSSChgQ-SL-acid
[30] = system: 2-hydroxyacetyl-HomoRSSChgQ-SL-DOX (3′)
[31] = system: PEG(2)-ASChgQ-SL-DOX (3′)
[32] = system: 2,3-dihydroxypropionyl-ShRYQ-SL-acid
[33] = system: 2,3-dihydroxypropionyl-hSSSChgQ-SL-acid
[34] = system: (2R,3S) 2,3,4-trihydroxybutanoyl-ShRChgQ-SL-acid
[35] = system: (d)2,3-dihydroxypropionyl-3PAL-SSChgQSL-acid
[36] = system: PEG(2)-SHomoRYQ-SL-DOX(3′)
[37] = system: 2-hydroxyacetyl-HomoRASChgQ-SL-DOX (3′)
[38] = system: (l)2,3-dihydroxypropionylSSSChgQ-S(dL)-DOX (3′)
[39] = system: 2-hydroxyacetyl-SSChgQ-SL-acid
[40] = system: (d)2,3-dihydroxypropionyl-HomoRSSChgQSL-DOX (3′)
[41] = system: 2,3-dihydroxypropionyl-GSSChgQ-SL-acid
[42] = system: 2-hydroxyacetyl-HomoRSSYQ-SL-DOX (3′)
[43] = system: 2-hydroxyacetyl-SSSChgQ-SL-DOX (3′)
[44] = system: PEG(2)-3PAL-SSChgQ-SL-acid
[45] = system: PEG(2)-SSSChgQ-SL-DOX (3′)
[46] = system: 2-hydroxyacetyl-SSChgQ-SL-DOX (3′)

What does the source list for free prostate specific antigen (PSA)?
Time to 50% Substrate Cleavage by York PSA (PEG(2)-hRSSChgQ-SL-acid): 40 min; Time to 50% Substrate Cleavage by York PSA [1]: 55 min; Time to 50% Substrate Cleavage by York PSA ((OH-Ac)SSSChgQ-SL-acid): 120 min; Time to 50% Substrate Cleavage by York PSA (PEG(18)ShRYQ-SL-acid): 40 min; Time to 50% Substrate Cleavage by York PSA [2]: 35 min; Time to 50% Substrate Cleavage by York PSA (PEG(1)-ShRChgQ-SL-acid): 120 min; Time to 50% Substrate Cleavage by York PSA (PEG(15)-ShRYQ-SL-acid): 40 min; Time to 50% Substrate Cleavage by York PSA (PEG(1)-hRSSChgQ-SL-acid): 30 min; Time to 50% Substrate Cleavage by York PSA [3]: 60 min; Time to 50% Substrate Cleavage by York PSA [4]: 25 min; Time to 50% Substrate Cleavage by York PSA [5]: 45 min; Time to 50% Substrate Cleavage by York PSA [6]: 180 min; Time to 50% Substrate Cleavage by York PSA (PEG(14)ShRYQ-SL-acid): 40 min; Time to 50% Substrate Cleavage by York PSA [7]: 60 min; Time to 50% Substrate Cleavage by York PSA [8]: 160 min; Time to 50% Substrate Cleavage by York PSA (PEG(2)SSSChgQ-SL-acid): 150 min; Time to 50% Substrate Cleavage by York PSA (Min) (Ac-ShRYQ-SNle-acid): 25 (PS); Time to 50% Substrate Cleavage by York PSA (Min) (Ac-hR(CHA)Q-SNle-acid): 200 (PS); Time to 50% Substrate Cleavage by York PSA [9]: 12 min; Time to 50% Substrate Cleavage by York PSA (Ac-ANKASYQ-SL-acid): 135 min and 220 min; Time to 50% Substrate Cleavage by York PSA [10]: 65 min; Time to 50% Substrate Cleavage by York PSA [11]: 60 min; Time to 50% Substrate Cleavage by York PSA [12]: 15 min; Time to 50% Substrate Cleavage by York PSA (Min) [13]: 12 (PS); Time to 50% Substrate Cleavage by York PSA [14]: 25 min; Time to 50% Substrate Cleavage by York PSA [15]: 70 min; Time to 50% Substrate Cleavage by York PSA [16]: 120 min; Time to 50% Substrate Cleavage by York PSA [17]: 45 min; Time to 50% Substrate Cleavage by York PSA [18]: 75 min; Time to 50% Substrate Cleavage by York PSA (PEG(2)-S-hRChgQ-SL-acid): 30 min; Time to 50% Substrate Cleavage by York PSA (Min) [19]: 35 (PP); Time to 50% Substrate Cleavage by York PSA [20]: 11 min; Time to 50% Substrate Cleavage by York PSA [21]: 80 min and 110 min; Time to 50% Substrate Cleavage by York PSA [22]: 120 min; Time to 50% Substrate Cleavage by York PSA [23]: 105 min; Time to 50% Substrate Cleavage by York PSA (PEG(2)-ShRYQ-SL-acid): 35 min; Time to 50% Substrate Cleavage by York PSA [24]: 70 min; Time to 50% Substrate Cleavage by York PSA [25]: 65 min; Time to 50% Substrate Cleavage by York PSA [26]: 35 min; Time to 50% Substrate Cleavage by York PSA (Min) (Ac-hRSSYQ-SNle-acid): 25 (PS); Time to 50% Substrate Cleavage by York PSA [27]: 15 min; Time to 50% Substrate Cleavage by York PSA [28]: 25 min; Time to 50% Substrate Cleavage by York PSA [29]: 25 min; Time to 50% Substrate Cleavage by York PSA [30]: 12 min; Time to 50% Substrate Cleavage by York PSA [31]: 45 min; Time to 50% Substrate Cleavage by York PSA (PEG(19)ShRYQ-SL-acid): 60 min; Time to 50% Substrate Cleavage by York PSA (Ac-hRASChgQ-SL-acid): 50 min; Time to 50% Substrate Cleavage by York PSA [32]: 35 min and 50 min; Time to 50% Substrate Cleavage by York PSA [33]: 160 min; Time to 50% Substrate Cleavage by York PSA [34]: 90 min; Time to 50% Substrate Cleavage by York PSA [35]: 80 min; Time to 50% Substrate Cleavage by York PSA [36]: 35 min; Time to 50% Substrate Cleavage by York PSA [37]: 10 min; Time to 50% Substrate Cleavage by York PSA [38]: 180 min; Time to 50% Substrate Cleavage by York PSA (AchRSSChgQ-SL-acid): 120 min and 45 min; Time to 50% Substrate Cleavage by York PSA [39]: 180 min; Time to 50% Substrate Cleavage by York PSA (PEG(17)-ShRYQ-SL-acid): 55 min; Time to 50% Substrate Cleavage by York PSA [40]: 12 min; Time to 50% Substrate Cleavage by York PSA [41]: 160 min; Time to 50% Substrate Cleavage by York PSA (Min) [42]: 16 (PS); Time to 50% Substrate Cleavage by York PSA [43]: 25 min; Time to 50% Substrate Cleavage by York PSA [44]: 80 min; Time to 50% Substrate Cleavage by York PSA [45]: 60 min; Time to 50% Substrate Cleavage by York PSA (PEG(1)-ShRYQ-SL-acid): 90 min; Time to 50% Substrate Cleavage by York PSA [46]: 45 min; Time to 50% Substrate Cleavage by York PSA (PEG(16)-ShRYQ-SL-acid): 40 min; Time to 50% Substrate Cleavage by York PSA (PEG(2)SSChgQ-SL-DOX (3′)): 90 min
